Results reported in publication PMC10482388, “A novel homeostatic mechanism tunes PI(4,5)P2-dependent signaling at the plasma membrane” (Journal of Cell Science, 2023).

Target: (Gly)5–PIP5K1A (aa 1–546), purified human PIP5K1A (human, UniProt Q99755 1-546)
Test: cell-based or functional assay

Sequence of (Gly)5–PIP5K1A (aa 1–546), purified human PIP5K1A (Q99755 other isoform, or with tags, fused parts or gaps): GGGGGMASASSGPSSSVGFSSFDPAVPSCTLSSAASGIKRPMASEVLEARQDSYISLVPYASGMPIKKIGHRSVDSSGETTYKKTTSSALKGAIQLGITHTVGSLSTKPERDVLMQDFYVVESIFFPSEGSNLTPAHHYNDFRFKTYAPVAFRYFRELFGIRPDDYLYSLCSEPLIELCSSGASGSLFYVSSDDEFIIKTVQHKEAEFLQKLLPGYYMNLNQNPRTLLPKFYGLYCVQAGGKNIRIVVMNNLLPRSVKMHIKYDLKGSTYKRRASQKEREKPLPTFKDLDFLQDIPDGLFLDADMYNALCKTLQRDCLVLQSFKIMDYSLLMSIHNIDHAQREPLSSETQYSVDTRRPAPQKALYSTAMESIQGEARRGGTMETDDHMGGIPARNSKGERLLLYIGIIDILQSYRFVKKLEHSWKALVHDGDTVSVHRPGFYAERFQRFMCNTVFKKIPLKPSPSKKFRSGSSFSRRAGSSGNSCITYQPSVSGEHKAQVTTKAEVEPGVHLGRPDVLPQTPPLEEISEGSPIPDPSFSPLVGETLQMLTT

B1: (Gly)5–PIP4K2A (aa 1–406), purified human PIP4K2A (enzyme)
chain: GGGGGMATPGNLGSSVLASKTKTKKKHFVAQKVKLFRASDPLLSVLMWGVNHSINELSHVQIPVMLMPDDFKAYSKIKVDNHLFNKENMPSHFKFKEYCPMVFRNLRERFGIDDQDFQNSLTRSAPLPNDSQARSGARFHTSYDKRYIIKTITSEDVAEMHNILKKYHQYIVECHGITLLPQFLGMYRLNVDGVEIYVIVTRNVFSHRLSVYRKYDLKGSTVAREASDKEKAKELPTLKDNDFINEGQKIYIDDNNKKVFLEKLKKDVEFLAQLKLMDYSLLVGIHDVERAEQEEVECEENDGEEEGESDGTHPVGTPPDSPGNTLNSSPPLAPGEFDPNIDVYGIKCHENSPRKEVYFMAIIDILTHYDAKKKAAHAAKTVKHGAGAEISTVNPEQYSKRFLDFIGHILT
modifications: fluorescently labelled LPETGG peptide (Alexa Fluor 488, Alexa Fluor 647 or Cy5) ligated by sortase onto the N-terminal (Gly)5 motif
- kinetics of PI(4,5)P2 production on PI4P-containing supported lipid bilayers, 1 nM PIP5K1A with or without 50 nM PIP4K2A; time to completion of the reaction: 2 fold (reaction completion time)
